Test results from patent US20260109774A1 (JUNO THERAPEUTICS, published 2026).
One block for each binder: values may come before it.

Tests used:
[1] = molecular target: T1, human B-cell maturation antigen (BCMA) on cells (human, UniProt Q02223 1-184); assay: flow cytometry on BCMA-expressing HEK293 cells vs control cells, crude lysate or bacterial supernatant; clone listed in Table E2
T1 construct: Recombinant on HEK293 or K562 cells, or endogenous on cell lines (H929, RPMI 8226, OPM2, MM1S, Daudi); also called hBCMA; huBCMA
T1 chain: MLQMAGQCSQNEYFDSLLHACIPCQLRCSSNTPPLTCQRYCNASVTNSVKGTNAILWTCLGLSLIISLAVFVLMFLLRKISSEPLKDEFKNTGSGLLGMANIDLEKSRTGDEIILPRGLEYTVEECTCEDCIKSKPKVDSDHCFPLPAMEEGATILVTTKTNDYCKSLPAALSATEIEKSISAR
Experimental: Specific binding of resulting scFv clones to BCMA-expressing HEK293 cells, as compared to control cells not expressing BCMA, was assessed by flow cytometry either with in vitro translated crude cell lysate or with bacterially-produced supernatant.

[2] = molecular target: T2, BCMA-Fc (soluble human BCMA fused at its C-terminus to an Fc region of IgG) (human, UniProt Q02223 1-54); assay: flow cytometry, T cells transduced with Non-SSE construct, CD4 gate, recombinant BCMA-Fc (rBCMA) staining against surrogate marker
T2 construct: also called hBCMA-Fc; hBMCA-Fc
T2 sequence: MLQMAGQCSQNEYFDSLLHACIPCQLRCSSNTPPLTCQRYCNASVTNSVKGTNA
Experimental: (§1) Lentiviral constructs containing anti-BCMA CAR-encoding polynucleotides with starting and optimized sequences, respectively, as described in Example 3, were transduced into T cells and transduced cells were analyzed for transduction (based on expression of a surrogate marker) and for CAR expression based on binding to recombinant BCMA-Fc fusion protein by flow cytometry.

[3] = molecular target: T2, BCMA-Fc (soluble human BCMA fused at …); assay: flow cytometry, T cells transduced with Non-SSE construct, CD8 gate, recombinant BCMA-Fc (rBCMA) staining against surrogate marker
Experimental: as §1

[4] = molecular target: T2, BCMA-Fc (soluble human BCMA fused at …); assay: flow cytometry, T cells transduced with O/SSE construct, CD8 gate, recombinant BCMA-Fc (rBCMA) staining against surrogate marker
Experimental: as §1

[5] = molecular target: T2, BCMA-Fc (soluble human BCMA fused at …); assay: flow cytometry, T cells transduced with O/SSE construct, CD4 gate, recombinant BCMA-Fc (rBCMA) staining against surrogate marker
Experimental: as §1

binding result [1]: binds
B2: BCMA-38 scFv (scFv)
scFv: QVQLVQSGGGLVKPGGSLRLSCAASGFTFSDYYMSWIRQAPGKGLEWVSYISSSGSTIYYADSVKGRFTISRDNAKNSLYLQMNSLRAEDTAVYYCARVDGDYVDDYWGQGTLVTVSSGGGGSGGGGSGGGGSQAVLTQEPSLTVSPGGTVTLTCGSSTGAVTNGHSPYWFQQKPGQAPRTLIYDTNNRHSWTPARFSGSLLGGKAALTLSGAQPEDEADYFCLLSYSDARLAFGGGTKLTVL

binding result [1]: binds
B3: BCMA-48 scFv (scFv)
scFv: EVQLVESGGGLVKPGGSLRLSCAASGFTFSDYYMSWIRQAPGKGLEWVSYISSSGSTIYYADSVKGRFTISRDNAKNSLYLQMNSLRAEDTAVYYCAKVDGPPSFDIWGQGTMVTVSSGGGGSGGGGSGGGGSQPVLTQPPSVSVAPGKTATITCGGNNIGSKSVHWYQRKPGQGPVVVIQYDTDRPSGIPERFSGSNSGNTATLTISRVEAGDEGDYYCQVWDSSSDHWVFGGGTKLTVL

binding result [1]: binds
B4: BCMA-45 scFv (scFv)
scFv: QVQLVQSGGGLVQPGRSLRLSCTASGFTFGDYAMSWFRQAPGKGLEWVGFIRSKAYGGTTEYAASVKGRFTISRDDSKSIAYLQMNSLKTEDTAVYYCAAWSAPTDYWGQGTLVTVSSGGGGSGGGGSGGGGSAIRMTQSPSSLSASVGDRVTITCRASQGIGRSLAWYKQKPGGVPQLLIHDASSLRSGVPSRFSGSGSGTEFTLTISGVQSEDSATYHCQQLNGYPWTFGQGTKVDIK

binding result [1]: binds
B7: BCMA-37 scFv (scFv)
scFv: EVQLVQSGGGLVKPGGSLRLSCAASGFTFSDYYMSWIRQAPGKGLEWVSYISSSGSTIYYADSVKGRFTISRDNAKSSLYLQMNSLRAEDTAVYYCARVDGDYVDDYWGQGTLVTVSSGGGGSGGGGSGGGGSQLVLTQEPSLTVSPGGTVTLTCGSSTGAVTNGHSPYWFQQKPGQAPRTLIYDTTNRHSWTPARFSGSLLGGKAALTLSGAQPEDEAEYYCSLSHAGDRVFFGGGTKLTVL

binding result [1]: binds
B9: BCMA-35 scFv (scFv)
scFv: EVQLVQSGGGLVKPGGSLRLSCAASGFTFSDYYMSWIRQAPGKGLEWVSYISSSGSTIYYADSVKGRFTISRDNAKNSLYLQMNSLRAEDTAVYYCARVDGDYDDYWGQGTLVTVSSGGGGSGGGGSGGGGSNFMLTQPPSVSVAPGQTARITCGANNIGSKSVHWYQQKPGQAPMLVVYDDDDRPSGIPERFSGSNSGNTATLTISGVEAGDEADYFCHLWDRSRDHYVFGTGTKLDIK

binding result [1]: binds
B12: BCMA-49 scFv (scFv)
scFv: QVQLVESGGGLVKPGGSLRLSCAASGFTFSDYYMSWIRQAPGKGLEWVSYISSSGSTIYYADSVKGRFTISRDNAKNSLYLQMNSLRAEDTAVYYCAKVDGPPSFDIWGQGTMVTVSSGGGGSGGGGSGGGGSLPVLTQPPSVSVAPGKTARITCGGDQIGRKSVHWYQQKPGQAPVLVMSYDSDRPSGIPERFSGSNSGNTATLTISRVEAGDEAAYYCQVWDSSTGQYVVFGGGTKLTVL

binding result [1]: binds
B14: BCMA-36 scFv (scFv)
scFv: QVQLVQSGGGLVKPGGSLRLSCAASGFTFSDYYMSWIRQAPGKGLEWVSYISSSGSTIYYADSVKGRFTISRDNAKNSLYLQMNSLRAEDTAVYYCARVDGDYVDDYWGQGTLVTVSSGGGGSGGGGSGGGGSQSVLTQEPSLTVSPGETVTLTCGSSTGPVTSAHSPSWFQKKPGQAPTTLIYETTNRHSWTPARFSGSLLGGKAALTLSGAQPEDEADYYCLLSSGDARMVFGGGTKLTVL

Continued, binder first:

B1: BCMA-42 scFv (scFv)
scFv: EVQLLESGGGLVQPGRSLRLSCTASGFTFGDYAMSWFRQAPGKGLEWVGFIRSKAYGGTTEYAASVKGRFTISRDDSKSIAYLQMNSLKTEDTAVYYCAAWSAPTDYWGQGTLVTVSSGGGGSGGGGSGGGGSDIQMTQSPSLVSASVGDRVTITCRASQGIGNGLAWYQQKPGKAPKLLLFAASRLESGVPSRFSGSRSGTDYTLTISSLQPEDVATYYCQQYVEDALTFGGGTKVDIK
binding result [1]: binds

B5: BCMA-24 scFv (scFv)
scFv: EVQLVQSGGGLVKPGGSLRLSCAASGFTFSDYYMSWIRQAPGKGLEWVSGISWNSGSIGYADSVKGRFTISRDNAKNSLYLQMNSLRAEDTAVYYCARDLGPPYGDDAFDIWGQGTMVTVSSGGGGSGGGGSGGGGSDIVMTQSPDSLAVSLGERATINCKSSQSVLYSSNNKNYLAWYQQKPGQPPKLLIYWGSTRESGVPDRFSGSGSGTDFTLTISSLQAEDVAIYHCQQYISLPWTFGQGTKVEIK
binding result [1]: binds

B6: BCMA-51 scFv (scFv)
scFv: EVQLVQSGGGLVQPGRSLRLSCTASGFTFGDYAMSWFRQAPGKGLEWVGFIRSKAYGGTTEYAASVKGRFTISRDDSKSIAYLQMNSLKTEDTAVYYCAAWSAPTDYWGQGTLVTVSSGGGGSGGGGSGGGGSAIQLTQSPSTLSASVGDRVAITCRASQNIGDWLAWYQQKPGKAPKLLIFGASILESGVPSRFSGSGSGTDFTLTISSLQPEDVAVYYCQKYDGAPPWTFGQGTKVEIK
binding result [1]: binds

B8: BCMA-32 scFv (scFv)
scFv: QVQLVESGGGLVKPGGSLRLSCAASGFTFSDYYMSWIRQAPGKGLEWVSYISSSGSTIYYADSVKGRFTISRDNAKNSLYLQMNSLRAEDTAVYYCAKVDGPPSFDIWGQGTMVTVSSGGGGSGGGGSGGGGSQTVVTQPPSVSVAPGQTARITCGGNNIGSKGVHWYRQRPGQAPEVVIYDDSDRPSGVPDRFSGSNSGNTATLTVRGVEAGDEADYYCQVWDSSSDHWVFGGGTKLTVL
binding result [1]: binds

B10: BCMA-41 scFv (scFv)
scFv: QVQLVQSGGGLVKPGGSLRLSCAASGFTFSDYYMSWIRQAPGKGLEWVSYISSSGNTIYYADSVKGRFTISRDNAKNSLYLQMNSLRAEDTAVYYCAKVDGDYVDDYWGQGTLVTVSSGGGGSGGGGSGGGGSQPVLTQPPSVSGTPGQRVTIPCSGSSSNIGGNSVDWFQEVPGTAPKLLIYANDRRPSGVPDRFSGTKSGTSASLAIRGLQSDDDAHYYCESWDDALNGHVFGGGTKLTVL
binding result [1]: binds

B11: BCMA-34 scFv (scFv)
scFv: TGQLVQSGGGLVQPGRSLRLSCAASGFTFDDYAMHWVRQAPGKGLEWVSGISWNSGSIGYADSVKGRFTISRDNAKNSLYLQMNSLRAEDTAVYYCARDLGPDYDPDAFDIWGQGTMVTVSSGGGGSGGGGSGGGGSEIVMTQSPATLSLSPGDRATLSCRASQSISNYLAWYQQKPGQAPRLLIYDASNRATGIPARFSGSGSGTDFTLTISSLEPEDFAVYYCQQRSNWPPYTFGQGTKLDIK
binding result [1]: binds

B13: BCMA-25-LS CAR (other)
chain: EVQLVQSGGGLVQPGRSLRLSCTASGFTFGDYAMSWFRQAPGKGLEWVGFIRSKAYGGTTEYAASVKGRFTISRDDSKSIAYLQMNSLKTEDTAVYYCAAWSAPTDYWGQGTLVTVSSGGGGSGGGGSGGGGSDIQMTQSPAFLSASVGDRVTVTCRASQGISNYLAWYQQKPGNAPRLLIYSASTLQSGVPSRFRGTGYGTEFSLTIDSLQPEDFATYYCQQSYTSRQTFGPGTRLDIKESKYGPPCPPCPAPPVAGPSVFLFPPKPKDTLMISRTPEVTCVVVDVSQEDPEVQFNWYVDGVEVHNAKTKPREEQFQSTYRVVSVLTVLHQDWLNGKEYKCKVSNKGLPSSIEKTISKAKGQPREPQVYTLPPSQEEMTKNQVSLTCLVKGFYPSDIAVEWESNGQPENNYKTTPPVLDSDGSFFLYSRLTVDKSRWQEGNVFSCSVMHEALHNHYTQKSLSLSLGKMFWVLVVVGGVLACYSLLVTVAFIIFWVKRGRKKLLYIFKQPFMRPVQTTQEEDGCSCRFPEEEEGGCELRVKFSRSADAPAYQQGQNQLYNELNLGRREEYDVLDKRRGRDPEMGGKPRRKNPQEGLYNELQKDKMAEAYSEIGMKGERRRGKGHDGLYQGLSTATKDTYDALHMQALPPR
notes: Chimeric antigen receptor; signal peptide left out; also called BCMA-25-LS-O/SSE CAR; BCMA-25-L CAR
% of cells in Q1 (rBCMA+ marker-) [2]: 0.31% | % of cells in Q3 (rBCMA- marker+) [2]: 30.5% | % of cells in Q4 (rBCMA- marker-) [2]: 51.3% | % of cells in Q1 (rBCMA+ marker-) [3]: 0.37% | % of cells in Q3 (rBCMA- marker+) [3]: 29.4% | % of cells in Q4 (rBCMA- marker-) [3]: 52.5% | % of cells in Q1 (rBCMA+ marker-) [4]: 1.37% | % of cells in Q3 (rBCMA- marker+) [4]: 17.5% | % of cells in Q4 (rBCMA- marker-) [4]: 19.4% | % of cells in Q1 (rBCMA+ marker-) [5]: 2.36% | % of cells in Q3 (rBCMA- marker+) [5]: 10.4% | % of cells in Q4 (rBCMA- marker-) [5]: 22.3%
